These results are taken from patent US20120220489A1.

In assay [1] the target is pRb-BSA 1x peptide-protein conjugate (bovine). The experiment in a line: RPA, competition: +free H3 peptide 100 nM.
Assay [2] deals with Erk1-BSA 2.7x peptide-protein conjugate (human; bovine). Briefly: RPA, competition: +free H3 peptide 100 nM.
In assay [3] the target is pRb recombinant protein, human, Active Motif 31 128 (human) (UniProt P06400). Briefly: RPA, competition: +free H3 peptide 100 nM.
For assay [4], the target named is Histone H3 recombinant protein, human, Upstate 14-494 (human) (UniProt P68431). The experiment in a line: RPA, competition: +free H3 peptide 100 nM.
Assay [5] has as its target ERK1 (p44), human, Cell Signaling Technology 7416 (human) (UniProt P27361). Briefly: RPA, competition: +free H3 peptide 100 nM.
For assay [6], the target named is Histone H3-BSA 2.7x peptide-protein conjugate (bovine). The experiment in a line: RPA, competition: +free H3 peptide 100 nM.
Assay [7] concerns the target Histone H3 recombinant protein, calf, Roche 11 034 758 001 (calf) (UniProt P68432). The experiment in a line: RPA, competition: +free H3 peptide 100 nM.
In assay [8] the target is ERK2 (p42), human, Biosource PHO 0104 (human) (UniProt P28482). Briefly: RPA, competition: +free H3 peptide 100 nM.
Assay [9] addresses ERK1 (p42) active (phospho), human, Active Motif 31 152 (human) (UniProt P27361). Briefly: RPA, competition: +free H3 peptide 100 nM.
Assay [10] addresses ERK1 (p44) active (GST tagged), human, Invitrogen PV 3311 (human) (UniProt P27361). The experiment in a line: RPA, competition: +free H3 peptide 100 nM.
The target of assay [11] is pErk1/2-BSA 2.7x peptide-protein conjugate (human; bovine). The experiment in a line: RPA, competition: +free H3 peptide 100 nM.
The target in assay [12] is ERK1 (p44) inactive (GST tagged), human, Invitrogen PV 3312 (human) (UniProt P27361). Briefly: RPA, competition: +free H3 peptide 100 nM.
The target of assay [13] is pRb-BSA 1x peptide-protein conjugate (bovine). The experiment in a line: RPA, competition: +free H3 peptide 10000 nM.
Assay [14] addresses Erk1-BSA 2.7x peptide-protein conjugate (human; bovine). The experiment in a line: RPA, competition: +free H3 peptide 10000 nM.
For assay [15], the target named is pRb recombinant protein, human, Active Motif 31 128 (human) (UniProt P06400). Briefly: RPA, competition: +free H3 peptide 10000 nM.
The target in assay [16] is Histone H3 recombinant protein, human, Upstate 14-494 (human) (UniProt P68431). Briefly: RPA, competition: +free H3 peptide 10000 nM.
In assay [17] the target is ERK1 (p44), human, Cell Signaling Technology 7416 (human) (UniProt P27361). Briefly: RPA, competition: +free H3 peptide 10000 nM.
The target in assay [18] is Histone H3-BSA 2.7x peptide-protein conjugate (bovine). Briefly: RPA, competition: +free H3 peptide 10000 nM.
Assay [19] concerns the target Histone H3 recombinant protein, calf, Roche 11 034 758 001 (calf) (UniProt P68432). Briefly: RPA, competition: +free H3 peptide 10000 nM.
The target in assay [20] is ERK2 (p42), human, Biosource PHO 0104 (human) (UniProt P28482). Briefly: RPA, competition: +free H3 peptide 10000 nM.
Assay [21] concerns the target ERK1 (p42) active (phospho), human, Active Motif 31 152 (human) (UniProt P27361). The experiment in a line: RPA, competition: +free H3 peptide 10000 nM.
Assay [22] concerns the target ERK1 (p44) active (GST tagged), human, Invitrogen PV 3311 (human) (UniProt P27361). The experiment in a line: RPA, competition: +free H3 peptide 10000 nM.
In assay [23] the target is pErk1/2-BSA 2.7x peptide-protein conjugate (human; bovine). The experiment in a line: RPA, competition: +free H3 peptide 10000 nM.
Assay [24] concerns the target ERK1 (p44) inactive (GST tagged), human, Invitrogen PV 3312 (human) (UniProt P27361). The experiment in a line: RPA, competition: +free H3 peptide 10000 nM.
Assay [25] concerns the target Histone H3 recombinant protein, human, Upstate 14-494 (human) (UniProt P68431). The experiment in a line: RPA standard curve, assay 2, LOD back-calculated from one-site fit.
Assay [26] concerns the target Histone H3-BSA 2.7x peptide-protein conjugate (bovine). The assay is described as above.
The target in assay [27] is pRb-BSA 1x peptide-protein conjugate (bovine). The experiment in a line: RPA, competition: +free Erk1 peptide 1000 nM.
Assay [28] deals with ERK1 (p44), human, Cell Signaling Technology 7416 (human) (UniProt P27361). Briefly: RPA, competition: +free Erk1 peptide 1000 nM.
For assay [29], the target named is Histone H3-BSA 2.7x peptide-protein conjugate (bovine). The experiment in a line: RPA, competition: +free Erk1 peptide 1000 nM.
Assay [30] addresses ERK2 (p42), human, Biosource PHO 0104 (human) (UniProt P28482). Briefly: RPA, competition: +free Erk1 peptide 1000 nM.
The target in assay [31] is ERK1 (p42) active (phospho), human, Active Motif 31 152 (human) (UniProt P27361). Briefly: RPA, competition: +free Erk1 peptide 1000 nM.
Assay [32] deals with ERK1 (p44) active (GST tagged), human, Invitrogen PV 3311 (human) (UniProt P27361). Briefly: RPA, competition: +free Erk1 peptide 1000 nM.
The target in assay [33] is pErk1/2-BSA 2.7x peptide-protein conjugate (human; bovine). Briefly: RPA, competition: +free Erk1 peptide 1000 nM.
Assay [34] deals with ERK1 (p44) inactive (GST tagged), human, Invitrogen PV 3312 (human) (UniProt P27361). Briefly: RPA, competition: +free Erk1 peptide 1000 nM.
Assay [35] concerns the target Erk1-BSA 2.7x peptide-protein conjugate (human; bovine). Briefly: RPA standard curve, assay 2, LOD back-calculated from one-site fit.
Assay [36] addresses ERK1 (p44) inactive (GST tagged), human, Invitrogen PV 3312 (human) (UniProt P27361). Described as above.
The target of assay [37] is pErk1/2-BSA 2.7x peptide-protein conjugate (human; bovine). The assay is described as above.

Histone H3-BSA 2.7x peptide-protein conjugate (bovine), sequence (P02769 25-607 limits assumed): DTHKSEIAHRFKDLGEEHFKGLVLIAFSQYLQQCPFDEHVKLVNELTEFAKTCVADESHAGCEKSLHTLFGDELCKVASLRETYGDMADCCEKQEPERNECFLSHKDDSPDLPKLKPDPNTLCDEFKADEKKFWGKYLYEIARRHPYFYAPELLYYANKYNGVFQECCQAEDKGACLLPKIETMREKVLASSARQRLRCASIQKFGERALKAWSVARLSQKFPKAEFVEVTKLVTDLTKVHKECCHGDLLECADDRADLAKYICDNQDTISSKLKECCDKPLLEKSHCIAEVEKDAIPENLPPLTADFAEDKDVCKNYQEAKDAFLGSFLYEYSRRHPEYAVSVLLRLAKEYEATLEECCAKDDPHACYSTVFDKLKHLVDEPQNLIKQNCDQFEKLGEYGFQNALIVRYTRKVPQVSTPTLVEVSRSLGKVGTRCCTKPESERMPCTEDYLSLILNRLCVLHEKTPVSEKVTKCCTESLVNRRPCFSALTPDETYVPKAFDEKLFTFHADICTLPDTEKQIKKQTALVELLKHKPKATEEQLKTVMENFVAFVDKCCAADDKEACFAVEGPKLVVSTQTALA
pErk1/2-BSA 2.7x peptide-protein conjugate (human; bovine), sequence (P02769 25-607 limits assumed): as above
pRb-BSA 1x peptide-protein conjugate (bovine), sequence (P02769 25-607 limits assumed): as above
UniProt P28482, sequence (P28482 2-360 limits assumed): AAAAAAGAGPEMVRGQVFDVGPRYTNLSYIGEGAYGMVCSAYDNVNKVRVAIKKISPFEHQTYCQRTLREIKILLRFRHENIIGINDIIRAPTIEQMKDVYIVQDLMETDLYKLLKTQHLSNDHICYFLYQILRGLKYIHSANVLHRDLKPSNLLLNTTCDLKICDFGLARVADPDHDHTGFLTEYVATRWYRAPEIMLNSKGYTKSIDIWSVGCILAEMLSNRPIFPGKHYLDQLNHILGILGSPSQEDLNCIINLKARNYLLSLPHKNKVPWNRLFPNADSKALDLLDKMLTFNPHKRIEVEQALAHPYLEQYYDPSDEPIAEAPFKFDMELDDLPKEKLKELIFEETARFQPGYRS
Erk1-BSA 2.7x peptide-protein conjugate (human; bovine), sequence (peptide, as listed by the source limits assumed, chain 1 of 2): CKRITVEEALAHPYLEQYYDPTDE
Erk1-BSA 2.7x peptide-protein conjugate (human; bovine), sequence (P02769 25-607 limits assumed, chain 2 of 2): as the sequence (P02769 25-607 limits assumed) above
UniProt P06400, sequence (P06400 whole entry): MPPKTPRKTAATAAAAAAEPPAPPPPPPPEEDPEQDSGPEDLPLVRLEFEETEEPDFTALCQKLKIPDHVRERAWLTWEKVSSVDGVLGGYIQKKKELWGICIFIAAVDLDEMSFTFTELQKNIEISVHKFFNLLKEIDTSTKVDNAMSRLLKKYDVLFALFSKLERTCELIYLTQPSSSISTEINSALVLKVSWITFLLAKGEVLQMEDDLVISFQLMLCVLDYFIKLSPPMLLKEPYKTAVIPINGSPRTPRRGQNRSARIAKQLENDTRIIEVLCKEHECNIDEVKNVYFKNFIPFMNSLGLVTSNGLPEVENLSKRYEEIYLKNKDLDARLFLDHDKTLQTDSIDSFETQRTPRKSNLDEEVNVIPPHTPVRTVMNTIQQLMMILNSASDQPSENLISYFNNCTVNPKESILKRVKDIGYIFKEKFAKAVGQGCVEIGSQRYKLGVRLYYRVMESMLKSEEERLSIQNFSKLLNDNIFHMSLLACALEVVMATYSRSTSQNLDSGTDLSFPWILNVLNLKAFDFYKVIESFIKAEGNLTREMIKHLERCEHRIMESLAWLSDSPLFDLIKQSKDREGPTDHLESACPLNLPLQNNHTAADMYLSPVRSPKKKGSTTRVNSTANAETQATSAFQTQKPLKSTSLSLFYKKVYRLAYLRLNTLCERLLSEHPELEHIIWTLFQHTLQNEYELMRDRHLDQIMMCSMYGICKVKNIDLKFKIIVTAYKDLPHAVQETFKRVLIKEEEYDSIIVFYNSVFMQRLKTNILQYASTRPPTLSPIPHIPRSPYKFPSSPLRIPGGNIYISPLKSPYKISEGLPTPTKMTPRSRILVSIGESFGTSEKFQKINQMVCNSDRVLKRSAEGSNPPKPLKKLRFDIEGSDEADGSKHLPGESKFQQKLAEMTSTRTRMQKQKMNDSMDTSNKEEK

As to Histone H3 antibody, Abcam ab1791, the maximum standard curve signal is below 0.01 RFI in [1]; 0.01 RFI in [2]; below 0.01 RFI in [3]; 4.45 RFI in assay [4]; below 0.01 RFI in [5]; 3.33 RFI in assay [6]. Moreover, the maximum standard curve signal in assay [7] was 0.2 RFI; in assay [8], below 0.01 RFI; in assay [9], below 0.01 RFI; in [10] it was below 0.01 RFI; in assay [11], below 0.01 RFI; in assay [12] it was 0.02 RFI. Also, the maximum standard curve signal in [13] was below 0.01 RFI; in assay [14] it was 0.01 RFI; in [15], below 0.01 RFI; in assay [16], 0.07 RFI; in assay [17] it was below 0.01 RFI; in [18], 0.19 RFI. In addition, the maximum standard curve signal in [19] is below 0.01 RFI; in [20] it was below 0.01 RFI; in [21], below 0.01 RFI; in assay [22], below 0.01 RFI; in [23], 0.02 RFI; in assay [24], below 0.01 RFI. In addition, the figures for the LOD in assay [25] and in assay [26] were 0.178 nM and 0.141 nM, respectively.
As to “p44/42 MAPK (Erk1/2) antibody, Biosource 44-654G”, the maximum standard curve signal in assay [27] was 0.01 RFI; in assay [28], below 0.01 RFI; in assay [29], 0.02 RFI; in assay [30], 0.01 RFI; in [31], 0.01 RFI; in assay [32] it was 0.02 RFI. Moreover, the maximum standard curve signal in assay [33] turned out to be 0.01 RFI; in assay [34], 0.02 RFI. Further, the results for the LOD in assay [35] and in assay [36] were 0.046 nM and 0.084 nM, respectively.
Consider “p44/42 MAPK phospho (pERK1/2) Thr202/Tyr204 antibody, Cell Signaling Technology #9101”, for which the LOD in assay [37] is 0.032 nM.
